Results as given in US20150344570A1 (published 2015).

T1: FcγRIIa R (human, UniProt P12318 34-217)
T1 construct: extracellular domain; also called FcgRIIa R type; 2aR
T1 sequence (looked up): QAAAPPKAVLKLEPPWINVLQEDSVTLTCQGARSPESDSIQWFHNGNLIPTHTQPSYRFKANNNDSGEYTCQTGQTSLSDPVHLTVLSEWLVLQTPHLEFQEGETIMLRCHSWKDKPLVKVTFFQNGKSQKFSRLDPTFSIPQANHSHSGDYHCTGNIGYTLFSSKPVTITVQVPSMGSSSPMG


target: T1, FcγRIIa R; assay: SPR (Biacore), captured antibody, FcγR as analyte; relative binding activity

Row | He/Con_2aR | Binder
1 | 105 % (GpH7-A5/GpH7-B3/GpL16-k0 = 100) | GpH7-A5/GpH7-B3 variant K334_20W/GpL16-k0 (antibody, human IgG1, kappa, also called He Ab K334_20W) heavy 1: not shown heavy 2: not shown light: DIVMTQSPLSLPVTPGEPASISCQASESLVHSNRNTYLHWYLQKPGQSPQLLIYKVSNRFSGVPDRFSGSGSGTDFTLKISRVEAEDVGVYYCSQNTHVPPTFGQGTKVEIERTVAAPSVFIFPPSDEQLKSGTASVVCLLNNFYPREAKVQWKVDNALQSGNSQESVTEQDSKDSTYSLSSTLTLSKADYEKHKVYACEVTHQGLSSPVTKSFNRGEC
2 | 105 % (GpH7-A5/GpH7-B3/GpL16-k0 = 100) | GpH7-A5/GpH7-B3 variant L328_10E/GpL16-k0 (antibody, human IgG1, kappa, also called He Ab L328_10E) heavy 1: not shown heavy 2: not shown light: DIVMTQSPLSLPVTPGEPASISCQASESLVHSNRNTYLHWYLQKPGQSPQLLIYKVSNRFSGVPDRFSGSGSGTDFTLKISRVEAEDVGVYYCSQNTHVPPTFGQGTKVEIERTVAAPSVFIFPPSDEQLKSGTASVVCLLNNFYPREAKVQWKVDNALQSGNSQESVTEQDSKDSTYSLSSTLTLSKADYEKHKVYACEVTHQGLSSPVTKSFNRGEC
3 | 131 % (GpH7-A5/GpH7-B3/GpL16-k0 = 100) | GpH7-A5/GpH7-B3 variant L235_20W/GpL16-k0 (antibody, human IgG1, kappa, also called He Ab L235_20W) heavy 1: not shown heavy 2: not shown light: DIVMTQSPLSLPVTPGEPASISCQASESLVHSNRNTYLHWYLQKPGQSPQLLIYKVSNRFSGVPDRFSGSGSGTDFTLKISRVEAEDVGVYYCSQNTHVPPTFGQGTKVEIERTVAAPSVFIFPPSDEQLKSGTASVVCLLNNFYPREAKVQWKVDNALQSGNSQESVTEQDSKDSTYSLSSTLTLSKADYEKHKVYACEVTHQGLSSPVTKSFNRGEC
4 | 114 % (GpH7-A5/GpH7-B3/GpL16-k0 = 100) | GpH7-A5/GpH7-B3 variant L235_04F/GpL16-k0 (antibody, human IgG1, kappa, also called He Ab L235_04F) heavy 1: not shown heavy 2: not shown light: DIVMTQSPLSLPVTPGEPASISCQASESLVHSNRNTYLHWYLQKPGQSPQLLIYKVSNRFSGVPDRFSGSGSGTDFTLKISRVEAEDVGVYYCSQNTHVPPTFGQGTKVEIERTVAAPSVFIFPPSDEQLKSGTASVVCLLNNFYPREAKVQWKVDNALQSGNSQESVTEQDSKDSTYSLSSTLTLSKADYEKHKVYACEVTHQGLSSPVTKSFNRGEC
5 | 101 % (GpH7-A5/GpH7-B3/GpL16-k0 = 100) | GpH7-A5/GpH7-B3 variant L235_09D/GpL16-k0 (antibody, human IgG1, kappa, also called He Ab L235_09D) heavy 1: not shown heavy 2: not shown light: DIVMTQSPLSLPVTPGEPASISCQASESLVHSNRNTYLHWYLQKPGQSPQLLIYKVSNRFSGVPDRFSGSGSGTDFTLKISRVEAEDVGVYYCSQNTHVPPTFGQGTKVEIERTVAAPSVFIFPPSDEQLKSGTASVVCLLNNFYPREAKVQWKVDNALQSGNSQESVTEQDSKDSTYSLSSTLTLSKADYEKHKVYACEVTHQGLSSPVTKSFNRGEC
6 | 122 % (GpH7-A5/GpH7-B3/GpL16-k0 = 100) | GpH7-A5/GpH7-B3 variant L234_09D/GpL16-k0 (antibody, human IgG1, kappa, also called He Ab L234_09D) heavy 1: not shown heavy 2: not shown light: DIVMTQSPLSLPVTPGEPASISCQASESLVHSNRNTYLHWYLQKPGQSPQLLIYKVSNRFSGVPDRFSGSGSGTDFTLKISRVEAEDVGVYYCSQNTHVPPTFGQGTKVEIERTVAAPSVFIFPPSDEQLKSGTASVVCLLNNFYPREAKVQWKVDNALQSGNSQESVTEQDSKDSTYSLSSTLTLSKADYEKHKVYACEVTHQGLSSPVTKSFNRGEC
7 | 108 % (GpH7-A5/GpH7-B3/GpL16-k0 = 100) | GpH7-A5/GpH7-B3 variant N325_03V/GpL16-k0 (antibody, human IgG1, kappa, also called He Ab N325_03V) heavy 1: not shown heavy 2: not shown light: DIVMTQSPLSLPVTPGEPASISCQASESLVHSNRNTYLHWYLQKPGQSPQLLIYKVSNRFSGVPDRFSGSGSGTDFTLKISRVEAEDVGVYYCSQNTHVPPTFGQGTKVEIERTVAAPSVFIFPPSDEQLKSGTASVVCLLNNFYPREAKVQWKVDNALQSGNSQESVTEQDSKDSTYSLSSTLTLSKADYEKHKVYACEVTHQGLSSPVTKSFNRGEC
8 | 117 % (GpH7-A5/GpH7-B3/GpL16-k0 = 100) | GpH7-A5/GpH7-B3 variant L328_13S/GpL16-k0 (antibody, human IgG1, kappa, also called He Ab L328_13S) heavy 1: not shown heavy 2: not shown light: DIVMTQSPLSLPVTPGEPASISCQASESLVHSNRNTYLHWYLQKPGQSPQLLIYKVSNRFSGVPDRFSGSGSGTDFTLKISRVEAEDVGVYYCSQNTHVPPTFGQGTKVEIERTVAAPSVFIFPPSDEQLKSGTASVVCLLNNFYPREAKVQWKVDNALQSGNSQESVTEQDSKDSTYSLSSTLTLSKADYEKHKVYACEVTHQGLSSPVTKSFNRGEC
9 | 119 % (GpH7-A5/GpH7-B3/GpL16-k0 = 100) | GpH7-A5/GpH7-B3 variant L328_14T/GpL16-k0 (antibody, human IgG1, kappa, also called He Ab L328_14T) heavy 1: not shown heavy 2: not shown light: DIVMTQSPLSLPVTPGEPASISCQASESLVHSNRNTYLHWYLQKPGQSPQLLIYKVSNRFSGVPDRFSGSGSGTDFTLKISRVEAEDVGVYYCSQNTHVPPTFGQGTKVEIERTVAAPSVFIFPPSDEQLKSGTASVVCLLNNFYPREAKVQWKVDNALQSGNSQESVTEQDSKDSTYSLSSTLTLSKADYEKHKVYACEVTHQGLSSPVTKSFNRGEC
10 | 120 % (GpH7-A5/GpH7-B3/GpL16-k0 = 100) | GpH7-A5/GpH7-B3 variant N325_04F/GpL16-k0 (antibody, human IgG1, kappa, also called He Ab N325_04F) heavy 1: not shown heavy 2: not shown light: DIVMTQSPLSLPVTPGEPASISCQASESLVHSNRNTYLHWYLQKPGQSPQLLIYKVSNRFSGVPDRFSGSGSGTDFTLKISRVEAEDVGVYYCSQNTHVPPTFGQGTKVEIERTVAAPSVFIFPPSDEQLKSGTASVVCLLNNFYPREAKVQWKVDNALQSGNSQESVTEQDSKDSTYSLSSTLTLSKADYEKHKVYACEVTHQGLSSPVTKSFNRGEC
11 | 109 % (GpH7-A5/GpH7-B3/GpL16-k0 = 100) | GpH7-A5/GpH7-B3 variant K334_19Q/GpL16-k0 (antibody, human IgG1, kappa, also called He Ab K334_19Q) heavy 1: not shown heavy 2: not shown light: DIVMTQSPLSLPVTPGEPASISCQASESLVHSNRNTYLHWYLQKPGQSPQLLIYKVSNRFSGVPDRFSGSGSGTDFTLKISRVEAEDVGVYYCSQNTHVPPTFGQGTKVEIERTVAAPSVFIFPPSDEQLKSGTASVVCLLNNFYPREAKVQWKVDNALQSGNSQESVTEQDSKDSTYSLSSTLTLSKADYEKHKVYACEVTHQGLSSPVTKSFNRGEC
